Measurements taken from the DeepSol protein solubility set.

Experiment: soluble on expression in E. coli; label from the status in PepcDB or PDB records

Sequence	soluble on expression in E. coli
MVRHRLPSSTYYTPAGEPEWSREMFGEQSIAVLSGAYRNPIEMARHVAARCGSYQPFFVMDVAAIERRLEALRVMLPRVRPNYAVACNADPVLARVLSNNIDVNFEVSNTAELELVSMNVEPSRAVFCSQLMTRKAIKNAVLAGCSTFVVESEKQVTDVMNASPEAEIILAVCLPYSTGEVPFGCSVDEIEEILDMAHLLGANVTGIYLELGLRATLEDYITSVHDARSIFETADQKFLTLRRVCFGNLSVPTGADGAVNNEFMSFCNSLNNVIDDLFESNIDFSASIGRFLVTNAFTLCTNVIGKRAMDAKFITNDDFDDGVGFVYQTNDGVYGSFGCKQMDIKPLCKPLDVENDSEEQLHFGTILGPTLDGTDVAQRLMKSRQLRVGEWLVWEQMGAFTIPVDSEHSVPPVYYYSGKECWQKLIHKDEQRRSPSPSVSDNEDIGSDGEGGYASSCEDSEAEMALEPLIEDLNEFF	not soluble
GSEQQDLDDLAQVILSAVTSNTDTSKSARAQALSTALASSLADLLISESSGSSYQTQISALTNILSDCFVTTTGSNNPAFVSRVQTLIAVLSQSSSNAISGATGGSAFAQSQAFQQSA	soluble
MKNKADNKKRNFLTHSEIESLLKAANTGPHAARNYCLTLLCFIHGFRASEICRLRISDIDLKAKCIYIHRLKKGFSTTHPLLNKEVQALKNWLSIRTSYPHAESEWVFLSRKGNPLSRQQFYHIISTSGGNAGLSLEIHPHMLRHSCGFALANMGIDTRLIQDYLGHRNIRHTVWYTASNAGRFYGIWDRARGRQRHAVL	soluble
MAHHHHHHMENKENLRNQQEFNQLCRILRLVEGDPGQVVKEPPNLGILIEVLQKMVKATFVKESSYQEAVDAREKWKSTDSTVETKNIMDKQRADDLVRYKITHEKLKKLLAKAKMLVSRIKEERYLAYVSRNAALEKMAKVVYGSSAEKMFRNETEFEKFLANSQGTIVGKTAKETCGMSNDKMKNVSFAGYSLVGDFFCLCVGENNNATLCDKSFSGPREEHKWTKVMFEDKLVDFAAGWFKIRGLCYVNATSGIKDVVTPENISTEIVAFNKMLGRQRDDVQIYRREAESYRQYILGRVEQVGFTDSAICTGEHQHMCVNYAQCLVSNKGIPWQLKLMEAEEDLEDVEKHNMEVHVLIGRLDKLIEKIKKAAEQLSQEMEGIDVAVEKVQLLEEEIEENETTGKSEATAGEFNDNAQPEEGSLDKCEYWGMFSILFGVVAFSLV	not soluble
PKFHQAFAMINDAISDQSTFRLSCNEALIHRITPTNTISICADTDLPSLLNDLRLKQIDLIISPTTIHNPSFISESVFEEPMVVICRQDHPRIAGKIEQERFYSEKHCRFVGDEDFPVSNTEIHQPGLQERDVEMMTTSLSGMMLYVAKHDCLGVLPLSLAQKWQSALNLQVIQTPMLSEPVSYKLIFHKRDESSTSHQRLRAWARDQFATGLNA	not soluble
MGSDKIHHHHHHDKMNKNTGALQFDSIQVNETAHLFNDTAKPACNIIINFAYPVKSSDDMLKDSLNAYFISVCFGDKYIGEKPEAVVKQYAKNYIDEYRHDQEPMYAEDEKNKESDAVVGAWYSYYKSIESHVQLYEKDLLVYRVDYNEYTGGAHGMYMSTFLNMDLTLMRPLRLDDIFVGDFQEALTDLIWNQLMADNKVTTHEALEDMGYASTGDIAPTENFYLSKEGITFYYNIYDITPYSMGPVKVTIPYSMMEHLLGSNPILGDLKD	not soluble
NDRHIRHDITRPLPFADNSVDAFQAEDVLEHIAYDRIVPVLNEIHRVLKPGAVFRLSVPDYRCDILDARTEKDATGAPVFDPGGGGTRENPGHAWFPRYETVKTLVEKSNFGTAGEISFLHYYDEHNLPAMREIDYAKGFIQRPPDHDPRVQTPYRPMSLVVDLTKRDVRIFSSFNNSASHA	not soluble
MTDYFTAHDVLKKVEGLNSLSTLNKWANFIQKECDYQFHYDYIRFASHTRTKRTINHRKTRMFSLEEIQKFQKVIKLIPILGRNTSLRKLFDKKHHLDTMNHSELLTEIINQIEVKLANKEELFQALTKKYQQLERSYQTLEQRLAQLEESLSTQEQTSSGWFRRKR	not soluble
GMTGAVETESMKTVRIREKIKKFLGDRPRNTAEILEHINSTMRHGTTSQQLGNVLSKDKDIVKVGYIKRSGILSGGYDICEWATRNWVAEHCPEWTEGQPIILNEEGDFTLGPLPE	soluble
MSLGIRSGNNNGGFTNLTSQAPQTTQMFQSQSQLQPQPQPQPQQQQQHLQFNGSSDASSLRFGNSLSNTVNANNYSSNIGNNSINNNNIKNGTNNISQHGQGNNPSWVNNPKKRFTPHTVIRRKTTKQNSSSDINQNDDSSSMNATMRNFSKQNQDSKHNERNKSAANNDISSLLSNFNDIPPSVTLQDWQREDEFGSIPSLTTQFVTDKYTAKKTNRSAYDSKNTPNVFDKDSYVRIANIEQNHLDNNYNTAETNNKVHETSSKSSSLSAIIVFGYPESISNELIEHFSHFGHIMEDFQVLRLGRGINPNTFRIFHNHDTGCDENDSTVNKSITLKGRNNESNNKKYPIFTGESWVKLTYNSPSSALRALQENGTIFRGSLIGCIPYSKNAVEQLAGCKIDNVDDIGEFNVSMYQNSSTSSTSNTPSPPNVIITDGTLLREDDNTPAGHAGNPTNISSPIVANSPNKRLDVIDGKLPFMQNAGEGHHHHHH	soluble
MSLTKVLVIDPKIAGMSGDMFVSSLLALTNSYDLMDELILELEKLNNCNSFKVSVMDEKVNGISAKQLKIEIDEERIKNPDELKEIIINTSKNLMSEKGVKICENIINDLIEAEKKLHGDHFHLHEISSLDTVFDIVLPVLILEKNGFLDGKIYSTPPSLGNGRISMDHGIIPSPAPSTLEILCKHEIKCSKVDSEFELLTPTGAAILSNVTDEFTDSYPEIVLLKTAYGAGTKRMEHVPNVLRLVEGKTDEKIIEKTVILETNIDDISSEILAYAVERLLNEGAPDVFITPVFGKKNRPSSMISVICPYHVHEKFAKILIEETGTLGVRINHYDKIRAKRRMEKLTLDINGVNFGFDVKISDLNGEIVNIKPEFEDLKKIAKNLNIPLRDVLRHANNKIKEIYGFEGHHHHHH	soluble
GEFLISILEAIEPEVVYAGYDNSQPDTTNYLLSSLNRLAGKQMVSVVKWAKALPGFRNLHLDDQMTLIQYSWMSLMAFSLGWRSYKHTNGQMLYFAPDLIFNEERMQQSAMYDLCQGMRQISQEFVRLQVTYEEFLCMKVLLLLSTVPKDGLKSQASFDEMRMNYIKELRRAIAKKENNSSQNWQRFYQLTKLLDSMHDLVGGLLQFCFYTFVQSQALSVEFPEMLVEIISDQLPKVMAGMAKPLLFHKK	soluble
MQMIHKEGWIEVICGSMFSGKSEELIRRVRRATYGRLKVQVFKPAIDNRYSEQEVVSHNGNKVCAIPVERAMSILEQWSEDTDIVAIDEVQFFDEDVIGVVDYLADHGVRVICAGLDQDFRGEPFEPTRTLMAMAEYVTKLQAICPVCGSPASRTQRLIDGKPASYHDPIILVGAAEAYEPRCRHCHQVTNKPSKLPETASSGELEHHHHHH	soluble
MSLTIRDIAAKAGVSVSTASRALNNNPRISQATRERIQALAEAEGYLPNYNAKNLTAGESNAVGVVFATADRSQPENPFFIDILRGINAQLVQRDYVLSVAISKTADELLKNVKAMVAQGKIKRFVLLYAHQDDPIAAFLRQHHLRFVTIGQPDDNANDYFVDNDNLEAGIGGATFLLNQLQVKHPVFVESTHDWAYEQQRRQGYERVAATFNVEPLTCRLGELNRVRAFIKRHPEIDGIMATDDFNGIEFYRLMREQYGINHFPMVSFNQSLPNGLTDADLHSVNLFPEKMGSATVALLFSDKEPLETPTPGQIKIPFEIKEGHHHHHH	soluble
MSNDFTQAQAPPWRYGFLNLMRRVDVQLCTVPAGNTWQPRMEKFRLGQTPALTFAPREIASVGWQEGRLHISLYSLVLWGPNGPLPLHYTELARNRTESRR	not soluble
MGSDKIHHHHHHMAAPAGGGGSAVSVLAPNGRRHTVKVTPSTVLLQVLEDTCRRQDFNPSEYDLKFQRTVLDLSLQWRFANLPNNAKLEMVPVSRSREGPENIVRIAFQLDDGSRLQDAFCSRQTLWELLSHFAQTRERLQQLGEKTPVCVYMRNEVTGRAALQNTTLQSLGLTGGSATIRFVIKQCDTAGKQESIAVRSKAPGSPVSSLSADQASSSTLLPLNSGEFSRGDLNHEGDANTSGTGLEGGPKPTDAQTKQSTSEPASAPFVPFSGGGQRLGGPSASLRPLTSPSANSSKSFSGPGGPSKPKKPKPGEEPQQEPEPPVDRDPVVYHPDLEDLLQPWPAEVPDEFFEVTVDDVRRRLAQLKSERKRLEEAPLVTKAFREAQMKEKLERYPKVALRVLFPDRYILQGFFRPSETVGDLRDFVRSHLGNPELSFYLFIAPPKMVLDDHTLTLFQANLFPAALVHFGAEEPTGLYLEPGLLEHTVSPSTADVLVARCMSRASGSPPLLPAPDPVSLESEPIAEDGALGPPEPIQGTAQPVKRSLGKVPKWLKLPASKR	not soluble
MTQANLSETLFKPRFKHPETSTLVRRFNHGAQPPVQSALDGKTIPHWYRMINRLMWIWRGIDPREILDVQARIVMSDAERTDDDLYDTVIGYRGGNWIYEWATQAMVWQQKACAEDDPQLSGRHWLHAATLYNIAAYPHLKGDDLAEQAQALSNRAYEEAAQRLPGTMRQMEFTVPGGAPITGFLHMPKGDGPFPTVLMCGGLDAMQTDYYSLYERYFAPRGIAMLTIDMPSVGFSSKWKLTQDSSLLHQHVLKALPNVPWVDHTRVAAFGFRFGANVAVRLAYLESPRLKAVACLGPVVHTLLSDFKCQQQVPEMYLDVLASRLGMHDASDEALRVELNRYSLKVQGLLGRRCPTPMLSGYWKNDPFSPEEDSRLITSSSADGKLLEIPFNPVYRNFDKGLQEITDWIEKRLC	soluble
MANLGMTGVADGNNSEQTYLGQINYQDQTITKASAKKLNREIDLQRASQLTLWAMPMVGMYQSYNSTIALFDLQEGDAPIIGLHEGYDGVYPFLTANVTTPYTISLVDLSETGPYVVNIPAGSIFGVANNAWQEPIKEIGSGNKETLLFVGPGQEYPKDFDGEVIQSDTNQILYFYRVLGVGAEAEKLKTAVTAYKLSDVANPPQVKFVIYKPKASDADVTIATQPRGMAYWEVVNQYIQNEPMADRDRFFYAWLKDLGIEKGKAFNPTPYQKEILLEGVNTGMAMAQSLAFNKTKKKFSSSLYGSDSGWEGVLAGMDPKIDLDTYSMINERTAYTYEAVTTSAGMIVENPGHGSAYIGSYYDADGNALMGGKNYTLHIEPNPPAANFWSITVYDIKNRLIIRNEIKRSDLSSRSESLVMNSDGSVDLYFGPEAPEGKEGNWIQSNDGESYFMYLRLYGPEQEYFDQTYPMNKIDKTKLEHHHHHH	not soluble
MQTVNNIISSVSTVESKAYRDAMSHYAGAVQIVTTAGAAGRRGLTLTAACSVSDNPPTILICLQKIHEENRIFIENGVFAINTLAGPHQQLADAFSGRIGLTQDERFELAAWEILATGAPVLKGALAAFDCRVVSVQDHSTHHVLFGEVVGLSSHAEEEALIYLNRRYHKLEL	soluble
MILTFNPGKLERQEFFKELINYLWIHDDVTLRKIKSHFTDYSKIDRLLEEYINHGYILRQNKRYSLNLPFLSSLDGLVLDDLVFIDSDSQIYQLLQKRKFVTNLDNPTNHLVFVEETDFERNTLTLSNYFYKLTNGYPLSREQKKLYQLLGDVNSEYALKYMSSFILKFLRKDSVKQKRTVIFIQALELLGYISLNQDTTYRLNAKLDVEALKIYLT	not soluble
MSDTLRPYKNLFPGIGQRVMIDTSSVVIGDVRLADDVGIWPLVVIRGDVNYVAIGARTNIQDGSVLHVTHKSSSNPHGNPLIIGEDVTVGHKVMLHGCTIGNRVLVGMGSIVLDGAIIEDDVMIGAGSLVPQHKRLESGYLYLGSPVKQIRPLSDAERSGLQYSANNYVKWKDDYLSQDNHIQP	not soluble
